This note sets out measurements from article PMC6559209.

This assay has as its target YlHD, hydrophilic domain of the Yarrowia lipolytica group 3 LEA protein (Yarrowia lipolytica). Description: MST; HD labelled with RED-NHS at 2 uM; label-free LDH titrated, diluted from 71 uM; binding buffer 20 mM HEPES, 150 mM KCl, pH 7.4 (the legend says phosphate buffer); normal conditions; Monolith NT.115, 20% LED, 60% MST power.

A word on the Kd: it is a measure of binding affinity in units of concentration. In turn, lactate dehydrogenase (LDH) (enzyme) showed a Kd of 5.03 µM. That is a single-digit micromolar value.
